For assay [1], the target named is soluble CD44 variants containing exon v6 in normal human serum (human) (UniProt P16070). Nature of the assay: sandwich ELISA, coating antibody, serum 1 diluted 1:20, detection BU-52-peroxidase. For orientation: An ELISA detects its analyte on a solid surface through an enzyme-linked reagent.
For assay [2] the target is unchanged. Nature of the assay: sandwich ELISA, coating antibody, serum 1 diluted 1:80, detection BU-52-peroxidase.
Assay [3] deals with CD44 (variant isoforms not specified) on CX-1 cells (human) (UniProt P16070). Nature of the assay: 3H-labelled antibody on ethanol-fixed CX-1 cells.
The target in assay [4] is CD44 (variant isoforms not specified) on COLO 205 cells (human) (UniProt P16070). Nature of the assay: 3H-labelled antibody on ethanol-fixed COLO 205 cells.
Assay [5] deals with soluble CD44 variants containing exon v6 in normal human serum (human) (UniProt P16070). Nature of the assay: sandwich ELISA, coating antibody, serum 1 diluted 1:5, detection BU-52-peroxidase.
Assay [6] concerns the target CD44 (variant isoforms not specified) on HT-29 cells (human) (UniProt P16070). Nature of the assay: 3H-labelled antibody on ethanol-fixed HT-29 cells.
Assay [7] deals with soluble CD44 variants containing exon v6 in normal human serum (human) (UniProt P16070). Nature of the assay: sandwich ELISA, coating antibody, serum 2 diluted 1:10, detection BU-52-peroxidase.
The target is the same in assay [8]. Nature of the assay: sandwich ELISA, coating antibody, serum 1 diluted 1:640, detection BU-52-peroxidase.
The target is the same in assay [9]. Nature of the assay: sandwich ELISA, coating antibody, serum 2 diluted 1:160, detection BU-52-peroxidase.
Assay [10] has the same target. Nature of the assay: sandwich ELISA, coating antibody, serum 2 diluted 1:640, detection BU-52-peroxidase.
The target is the same in assay [11]. Nature of the assay: sandwich ELISA, coating antibody, serum 2 diluted 1:320, detection BU-52-peroxidase.
Assay [12] has the same target. Nature of the assay: sandwich ELISA, coating antibody, serum 1 diluted 1:320, detection BU-52-peroxidase.
Assay [13] shares this target. Nature of the assay: sandwich ELISA, coating antibody, serum 1 diluted 1:10, detection BU-52-peroxidase.
Assay [14] addresses CD44 (variant isoforms not specified) on A431 cells (human) (UniProt P16070). Nature of the assay: 3H-labelled antibody on ethanol-fixed A431 cells.
Assay [15] deals with soluble CD44 variants containing exon v6 in normal human serum (human) (UniProt P16070). Nature of the assay: sandwich ELISA, coating antibody, serum 1 diluted 1:40, detection BU-52-peroxidase.
Assay [16] addresses human variant CD44 (exons v3-v10) on the cell surface of CHO-CD44var cells (human) (UniProt P16070). Nature of the assay: 3H-labelled antibody on ethanol-fixed CHO CD44var cells.
In assay [17] the target is soluble CD44 variants containing exon v6 in normal human serum (human) (UniProt P16070). Nature of the assay: sandwich ELISA, coating antibody, serum 2 diluted 1:5, detection BU-52-peroxidase.
Assay [18] shares this target. Nature of the assay: sandwich ELISA, coating antibody, serum 1 diluted 1:160, detection BU-52-peroxidase.
For assay [19] the target is unchanged. Nature of the assay: sandwich ELISA, coating antibody, serum 2 diluted 1:20, detection BU-52-peroxidase.
Assay [20] has the same target. Nature of the assay: sandwich ELISA, coating antibody, serum 2 diluted 1:80, detection BU-52-peroxidase.
The target of assay [21] is CD44 (variant isoforms not specified) on CaCo cells (human) (UniProt P16070). Nature of the assay: 3H-labelled antibody on ethanol-fixed CaCo cells.
In assay [22] the target is soluble CD44 variants containing exon v6 in normal human serum (human) (UniProt P16070). Nature of the assay: sandwich ELISA, coating antibody, serum 2 diluted 1:40, detection BU-52-peroxidase.
Assay [23] deals with CD44 (variant isoforms not specified) on HCT-116 cells (human) (UniProt P16070). Nature of the assay: 3H-labelled antibody on ethanol-fixed HCT-116 cells.
Assay [24] deals with soluble CD44 variants containing exon v6 in normal human serum (human) (UniProt P16070). Nature of the assay: sandwich ELISA, sera of 6 healthy donors, calibrated on recombinant soluble CD44v3-v10; reference VFF-7.
Assay [25] has the same target. Nature of the assay: sandwich ELISA, serum of donor 2, calibrated on recombinant soluble CD44v3-v10; reference VFF-7.
For assay [26] the target is unchanged. Nature of the assay: sandwich ELISA, serum of donor 4, calibrated on recombinant soluble CD44v3-v10; reference VFF-7.
The target is the same in assay [27]. Nature of the assay: sandwich ELISA, serum of donor 6, calibrated on recombinant soluble CD44v3-v10; reference VFF-7.
Assay [28] shares this target. Nature of the assay: sandwich ELISA, serum of donor 5, calibrated on recombinant soluble CD44v3-v10; reference VFF-7.
The target is the same in assay [29]. Nature of the assay: sandwich ELISA, serum of donor 1, calibrated on recombinant soluble CD44v3-v10; reference VFF-7.
The target is the same in assay [30]. Nature of the assay: sandwich ELISA, serum of donor 3, calibrated on recombinant soluble CD44v3-v10; reference VFF-7.

As to antibody VFF-7, the absorption (sandwich ELISA signal) (absorption at 450 nm) in assay [1] came to 0.179; in assay [2] it was 0.062; in assay [5] it was 0.417; in assay [7], 1.19; in [8] it was 0.007; in assay [9], 0.061. Besides, the absorption (sandwich ELISA signal) (absorption at 450 nm) was found to be 0.018 in assay [10]; 0.014 in assay [11]; 0.008 in assay [12]; 0.289 in assay [13]; 0.072 in [15]; 1.28 in assay [17]. Further, the absorption (sandwich ELISA signal) (absorption at 450 nm) in assay [18] was determined as 0.03; in [19], 0.857; in assay [20], 0.208; in assay [22] it was 0.468. Further, the specific binding (bound antibody per 400 000 cells) is 0.19 fmol in assay [3]; 0 fmol in assay [4]; 0 fmol in [6]; 8.19 fmol in assay [14]; 33.5 fmol in assay [16]; 0.03 fmol in assay [21]. The substance further displayed a specific binding (bound antibody per 400 000 cells) in assay [23] of 1.44 fmol.

With antibody VFF-4, the absorption (sandwich ELISA signal) (absorption at 450 nm) in assay [1] turned out to be 0.296; in assay [2], 0.109; in assay [5] it was 0.406; in assay [7], 1.76; in [8], 0.012; in assay [9], 0.336. Also, the absorption (sandwich ELISA signal) (absorption at 450 nm) came to 0.054 in assay [10]; 0.138 in assay [11]; 0.026 in assay [12]; 0.378 in [13]; 0.207 in assay [15]; 1.69 in assay [17]. Also, the absorption (sandwich ELISA signal) (absorption at 450 nm) in [18] is 0.05; in assay [19], 1.56; in assay [20], 0.699; in assay [22], 1.21.

Consider antibody VFF-18, for which the absorption (sandwich ELISA signal) (absorption at 450 nm) in assay [1] is 2.63; in [2], 1.08; in assay [5] it was 3.14; in assay [7], 3.32; in [8], 0.159; in [9], 1.67. The absorption (sandwich ELISA signal) (absorption at 450 nm) in [10] was 0.546; in assay [11], 0.988; in assay [12] it was 0.318; in assay [13] it was 3.06; in [15], 1.78; in [17], 3.29. In addition, the absorption (sandwich ELISA signal) (absorption at 450 nm) turned out to be 0.594 in [18], 3.16 in assay [19], 2.54 in assay [20] and 3.05 in assay [22]. In addition, the VFF-18/VFF-7 (mean value of the ratio over 6 donors) in [24] is 3.53. Besides, the specific binding (bound antibody per 400 000 cells) in [3] stood at 9.48 fmol; in assay [4], 2.88 fmol; in assay [6] it was 26.1 fmol; in assay [14], 38.7 fmol; in [16] it was 46.5 fmol; in assay [21], 12.6 fmol. Moreover, the specific binding (bound antibody per 400 000 cells) in [23] is 20.2 fmol. The VFF-18/VFF-7 (ratio of the serum levels read by the two ELISAs) in assay [25] came to 2.66; in [26], 3.31; in [27], 3.48; in assay [28], 3.67; in [29] it was 4.17; in assay [30] it was 3.91.
